T1: 6XHis-tagged TgIST-R2 (G365-S420)
T1 chain: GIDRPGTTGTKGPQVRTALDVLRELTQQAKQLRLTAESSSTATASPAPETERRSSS

B1: STAT1cc (STAT1 core fragment, A656C and N658C, locked dimer), tag-free, P42224 K665A (protein)
chain: MSQWYELQQLDSKFLEQVHQLYDDSFPMEIRQYLAQWLEKQDWEHAANDVSFATIRFHDLLSQLDDQYSRFSLENNFLLQHNIRKSKRNLQDNFQEDPIQMSMIIYSCLKEERKILENAQRFNQAQSGNIQSTVMLDKQKELDSKVRNVKDKVMCIEHEIKSLEDLQDEYDFKCKTLQNREHETNGVAKSDQKQEQLLLKKMYLMLDNKRKEVVHKIIELLNVTELTQNALINDELVEWKRRQQSACIGGPPNACLDQLQNWFTIVAESLQQVRQQLKKLEELEQKYTYEHDPITKNKQVLWDRTFSLFQQLIQSSFVVERQPCMPTHPQRPLVLKTGVQFTVKLRLLVKLQELNYNLKVKVLFDKDVNERNTVKGFRKFNILGTHTKVMNMEESTNGSLAAEFRHLQLKEQKNAGTRTNEGPLIVTEELHSLSFETQLCQPGLVIDLETTSLPVVVISNVSQLPSGWASILWYNMLVAEPRNLSFFLTPPCARWAQLSEVLSWQFSSVTKRGLNVDQLNMLGEKLLGPNASPDGLIPWTRFCKENINDKNFPFWLWIESILELIKKHLLPLWNDGCIMGFISKERERALLKDQQPGTFLLRFSESSREGAITFTWVERSQNGGEPDFHAVEPYTKKELSAVTFPDIIRNYKVMAAENIPENPLAYLYPNIDKDHAFGKYYSRPKEAPEPMELDGPKGTGYIKTELISVSEVHPSRLQTTDNLLPMSPEEFDEVSRIVGSVEFDSMMNTV

Target: T1, 6XHis-tagged TgIST-R2 (G365-S420)
Assay: nickel affinity copurification, SDS-PAGE, Coomassie blue band quantification
Conditions: chain shown with the change;; parent: est. 1.0; read off a plot

Question: Which ratio to parent does the source give for B1 here?
Answer: Its ratio to parent is 0.7.

Target: STAT1cc (STAT1 core fragment, A656C and N658C, locked dimer), tag-free (UniProt P42224)
Assay: as above
Conditions: parent: est. 1.0; read off a plot

Question: How did the ratio to parent turn out when 6XHis-tagged TgIST-R2 (G365-S420) D384A was run?
Answer: The ratio to parent was 0.57.

Question: 6XHis-tagged TgIST-R2 (G365-S420) L383A was tested. Which ratio to parent did it give?
Answer: Its ratio to parent is 0.01.

Question: How did the ratio to parent turn out when 6XHis-tagged TgIST-R2 (G365-S420) Q391A was run?
Answer: Its ratio to parent is 1.1.

Question: For 6XHis-tagged TgIST-R2 (G365-S420) E388A, which ratio to parent is on record?
Answer: The ratio to parent was 1.1.

Question: Which ratio to parent does the source give for 6XHis-tagged TgIST-R2 (G365-S420) L386A here?
Answer: Its ratio to parent is 0.02.

Question: “6XHis-tagged TgIST-R2 (G365-S420) Q391A; Q392A” was tested. Which ratio to parent did it give?
Answer: The ratio to parent was 0.99.

Question: Which ratio to parent does the source give for “6XHis-tagged TgIST-R2 (G365-S420) R416A; R417A” here?
Answer: The ratio to parent was 0.98.

Question: Which ratio to parent does the source give for 6XHis-tagged TgIST-R2 (G365-S420) R387A here?
Answer: Its ratio to parent is 0.03.

Question: For 6XHis-tagged TgIST-R2 (G365-S420) Q378A, which ratio to parent is on record?
Answer: Its ratio to parent is 0.83.

Question: With 6XHis-tagged TgIST-R2 (G365-S420) T381A as the molecule, how does the ratio to parent read?
Answer: The ratio to parent was 0.38.

Question: With 6XHis-tagged TgIST-R2 (G365-S420) Q392A as the molecule, how does the ratio to parent read?
Answer: The ratio to parent was 0.91.

Target: GST-tagged TgIST-R2 (Toxoplasma gondii (type I strain GT1))
Assay: BLI; GST-tagged TgIST-R2 loaded on anti-GST biosensors, pSTAT1d or pSTAT1d-linker-R2 in solution; kinetic buffer (ForteBio), 25 °C; apparent avidity, 1:2 model
Conditions: not given

Question: With “phosphorylated STAT1 dimer (pSTAT1d), STAT1 core domain S132-H713 (from UniProt P42224 132-713) (domain or fragment)” as the molecule, how does the Kd read?
Answer: The Kd was 22 nM.

Target: phosphorylated STAT1 dimer (pSTAT1d), STAT1 core domain S132-H713 (human) (UniProt P42224)
Assay: BLI; His-tagged pSTAT1d or STAT1 monomer loaded on Ni-NTA biosensors, TgIST-R2 proteins in solution; kinetic buffer (ForteBio), 25 °C; 1:1 model for the constant
Conditions: not given

Question: “TgIST-R2 peptide after GST removal (domain or fragment)” was tested. Which Kd did it give?
Answer: The Kd was 330 nM.

Reference: publication PMC9279507
